The values below come from PMC10810279, “Biophysical and structural characterization of a multifunctional viral genome packaging motor” (Nucleic Acids Research, 2023).

The labels stand for the following.
B2: bacteriophage λ terminase large subunit (TerL) (enzyme, UniProt P03708 1-641, looked up)
chain: MNISNSQVNRLRHFVRAGLRSLFRPEPQTAVEWADANYYLPKESAYQEGRWETLPFQRAIMNAMGSDYIREVNVVKSARVGYSKMLLGVYAYFIEHKQRNTLIWLPTDGDAENFMKTHVEPTIRDIPSLLALAPWYGKKHRDNTLTMKRFTNGRGFWCLGGKAAKNYREKSVDVAGYDELAAFDDDIEQEGSPTFLGDKRIEGSVWPKSIRGSTPKVRGTCQIERAASESPHFMRFHVACPHCGEEQYLKFGDKETPFGLKWTPDDPSSVFYLCEHNACVIRQQELDFTDARYICEKTGIWTRDGILWFSSSGEEIEPPDSVTFHIWTAYSPFTTWVQIVKDWMKTKGDTGKRKTFVNTTLGETWEAKIGERPDAEVMAERKEHYSAPVPDRVAYLTAGIDSQLDRYEMRVWGWGPGEESWLIDRQIIMGRHDDEQTLLRVDEAINKTYTRRNGAEMSISRICWDTGGIDPTIVYERSKKHGLFRVIPIKGASVYGKPVASMPRKRNKNGVYLTEIGTDTAKEQIYNRFTLTPEGDEPLPGAVHFPNNPDIFDLTEAQQLTAEEQVEKWVDGRKKILWDSKKRRNEALDCFVYALAALRISISRWQLDLSALLASLQEEDGAATNKKTLADYARALSGEDE
notes: large catalytic terminase subunit TerL of bacteriophage lambda; Never tested as an isolated subunit, only as part of the protomer or ring; also called large terminase

In data set [1] the target is T1, lambda terminase holoenzyme ring (TerL•TerS2)5 (Escherichia phage Lambda, UniProt P03708).
T1 construct: gene A; assembled ring of five TerL•TerS2 protomers; with Terminase small subunit
T1 sequence (P03708 1-641): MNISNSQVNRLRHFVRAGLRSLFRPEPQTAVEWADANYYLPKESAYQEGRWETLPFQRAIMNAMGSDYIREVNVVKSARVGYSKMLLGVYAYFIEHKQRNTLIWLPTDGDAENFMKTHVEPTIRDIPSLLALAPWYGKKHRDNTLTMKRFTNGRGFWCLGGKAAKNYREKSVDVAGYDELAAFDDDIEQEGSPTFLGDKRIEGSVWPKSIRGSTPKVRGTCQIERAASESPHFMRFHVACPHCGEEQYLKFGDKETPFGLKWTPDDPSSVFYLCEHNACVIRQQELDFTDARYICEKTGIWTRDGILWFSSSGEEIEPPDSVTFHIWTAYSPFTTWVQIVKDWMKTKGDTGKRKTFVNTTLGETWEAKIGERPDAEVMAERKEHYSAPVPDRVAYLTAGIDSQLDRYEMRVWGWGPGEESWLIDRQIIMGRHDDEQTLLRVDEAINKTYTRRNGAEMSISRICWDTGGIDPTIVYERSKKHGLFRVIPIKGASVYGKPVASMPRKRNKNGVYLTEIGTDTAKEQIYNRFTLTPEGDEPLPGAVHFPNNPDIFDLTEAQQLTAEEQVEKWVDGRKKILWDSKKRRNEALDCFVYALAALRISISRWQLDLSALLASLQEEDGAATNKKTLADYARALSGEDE
T1 sequence (P03707 1-181 partner): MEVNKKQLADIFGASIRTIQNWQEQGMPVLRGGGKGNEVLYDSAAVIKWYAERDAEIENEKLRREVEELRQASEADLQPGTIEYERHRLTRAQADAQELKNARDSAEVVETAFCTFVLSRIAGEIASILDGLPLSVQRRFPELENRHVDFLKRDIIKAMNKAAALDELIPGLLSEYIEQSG
Kind of data set: ATPase assay, […] TLC, phosphorimaging. It is filed as biochemical. Conditions: labelled compound; 10 nM terminase; 50 mM Tris-HCl pH 9, 10 mM MgCl2, 60 mM NaCl, 2 mM spermidine, 37 °C.

Data set [2] deals with bacteriophage λ terminase protomer (TerL•TerS2) (bacteriophage λ) (UniProt P03708). Kind of data set: cryo-EM 2D class averages; purified terminase ring at 0.5 mg/ml with 1 mM ATPγS; no 3D reconstruction.
For data set [3] the target is unchanged. Kind of data set: native MS; charge detection mass spectrometry (CDMS) of the assembled ring, 300 mM ammonium acetate pH 8.34.
Data set [4] shares this target. In words: cryo-EM 2D class averages; purified terminase ring at 0.5 mg/ml, no ligand (apo); no 3D reconstruction.
For data set [5] the target is unchanged. In words: SAXS; assembled terminase ring at 0.25, 0.50 and 0.80 mg/ml, 5°C; mass from the Porod-invariant volume; protomers to ring.
Data set [6] has as its target T1, lambda terminase holoenzyme ring (TerL•TerS2)5. Kind of data set: cryoEM 2D class averages (conformational change). It is filed as binding. The following applies: 1 mM ATPγS; no DNA mentioned; no 3D reconstruction.
For data set [7], the target named is B2. Kind of data set: native MS; charge detection mass spectrometry (CDMS) of the terminase protomer, 200 mM ammonium acetate. The following applies: both partners purified.
Data set [8] concerns the molecule itself. Kind of data set: cryo-EM 2D class averages; purified terminase ring at 0.5 mg/ml with 1 mM ATPγS; no 3D reconstruction.

Several values for one entry are separate records, joined by “and”; a condition that tells them apart may be missing. Equal values may be shown once.

Turning to `Nc1ncnc2c1ncn2[C@@H]1O[C@H](COP(=O)(O)OP(=O)(O)OP(=O)(O)O)[C@@H](O)[C@H]1O` [ATP], the Km in data set [1] came out at 0.495 ± 0.07 µM.
Take “bacteriophage λ terminase protomer (TerL•TerS2) (from UniProt P03708 1-641; P03707 1-181) (complex)”: the stoichiometry N in data set [2] was 5; in data set [3] it was 5 protomers; in data set [4] it was 5; in data set [5], 5.1 and 4.2 and 4.4.
Take `Nc1ncnc2c1ncn2[C@@H]1O[C@H](COP(=O)(O)OP(=O)(O)OP(O)(O)=S)[C@@H](O)[C@H]1O` [ATPγS]: the “cryoEM 2D class averages (conformational change)” value in data set [6] is reported as “we imaged the λ terminase ring bound to ATP-γS, a poorly hydrolyzed ATP analog”.

B1: bacteriophage λ terminase small subunit (TerS) (natural protein, UniProt P03707 1-181, looked up)
chain: MEVNKKQLADIFGASIRTIQNWQEQGMPVLRGGGKGNEVLYDSAAVIKWYAERDAEIENEKLRREVEELRQASEADLQPGTIEYERHRLTRAQADAQELKNARDSAEVVETAFCTFVLSRIAGEIASILDGLPLSVQRRFPELENRHVDFLKRDIIKAMNKAAALDELIPGLLSEYIEQSG
notes: small DNA recognition terminase subunit TerS of bacteriophage lambda; Never tested as an isolated subunit, only as part of the protomer or ring; also called small terminase
For B1, in data set [7], the binding result is reported as “binds”.
B2: the binding result in data set [8] was “binds”.
